Measured values reported in patent US20080181887A1.

Target: human FcRn (human)
Experiment: BIAcore SPR, soluble IgG over immobilized human FcRn, pH 6.0; reference purified cynomolgus monkey IgG

ratio of the human over cynomolgus IgG concentrations at Req50%: 0.9
Substance: humanized anti-RSV monoclonal antibody MEDI-524 (from UniProt P01857 1-330)
